Test results published in patent US20230035659A1, “Compositions and Methods for TTR Gene Editing and Treating ATTR Amyloidosis Comprising a Corticosteroid or Use Thereof” (Intellia Therapeutics, Inc., priority 2019, published 2023).
Strand notation (5' to 3'): a small letter for the sugar, then the base; units joined by * are phosphorothioate-linked, units joined directly phosphodiester-linked; [ ] holds rarer units or linkages, { } end groups; capitals alone tell only the bases. m = 2'-O-methyl; r = 2'-OH (RNA)

Columns and labels:
[1] = system: human TTR sequence; experiment: Liver editing (NGS) after LNP dosing of mice humanized with respect to the TTR gene; format: in vivo, mouse; settings: LNP Formulation Numbers 1-5, 2 mg/kg total RNA, Cas9 mRNA SEQ ID NO: 2, 1:1 to guide
Protocol: Unless otherwise noted, CD-1 female mice, ranging from 6-10 weeks of age were used in each study. Animals were weighed and grouped according to body weight for preparing dosing solutions based on group average weight. LNPs were dosed via the lateral tail vein in a volume of 0.2 mL per animal (approximately 10 mL per kilogram body weight). […] Body weight was measured at twenty-four hours post-administration, and animals were euthanized at various time points by exsanguination via cardiac puncture under isoflourane anesthesia. Blood was collected into serum separator tubes or into tubes containing buffered sodium citrate for plasma as described herein. […]
Additional PCR was performed per the manufacturer's protocols (Illumina) to add chemistry for sequencing. […] The reads were aligned to a reference genome (e.g., the human reference genome (hg38), the cynomologus reference genome (mf5), the rat reference genome (rn6), or the mouse reference genome (mm10)) after eliminating those having low quality scores. The resulting files containing the reads were mapped to the reference genome (BAM files), where reads that overlapped the target region of interest were selected and the number of wild type reads versus the number of reads which contain an insertion, substitution, or deletion was calculated. […]

[2] = system: TTR mRNA; experiment: TTR mRNA knockdown (quantitative PCR) in primary human hepatocytes treated with LNPs; format: cell-based; settings: PHH; LNP dose 300 ng mRNA cargo; gRNA:mRNA 1:2; 96 h; biological triplicates; vs untreated control
Protocol: In one experiment, PHH were cultured and treated with LNPs comprising Cas9 mRNA (SEQ ID NO:1) and a gRNA of interest (See FIG. 29, Table 36), as described in Example 4. The LNPs were prepared using the cross-flow procedure described above and purified and concentrated using PD-10 columns and Amicon centrifugal filter units, respectively. The LNPs were formulated with an N:P ratio of 6.0 and contained Lipid A, Cholesterol, DSPC, and PEG2k-DMG in a 50:38:9:2 molar ratio, respectively. The LNPs comprised a gRNA:mRNA ratio of 1:2, and the cells were treated at a dose of 300 ng (with respect to the amount of mRNA cargo delivered).
(§1) Ninety-six (96) hours following LNP treatment (with biological triplicates for each condition), mRNA was purified from PHH cells using the Dynabeads mRNA DIRECT Kit (ThermoFisher Scientific) according to the manufacturer's protocol. Reverse Transcription (RT) was performed with Maxima reverse transcriptase (ThermoFisher Scientific) and a poly-dT primer. The resulting cDNA was purified with Ampure XP Beads (Agencourt). For Quantitative PCR, 2% of the purified cDNA was amplified with Taqman Fast Advanced Mastermix and 3 Taqman probe sets, TTR (Assay ID: Hs00174914_m1), GAPDH (Assay ID: Hs02786624_g1), and PPIB (Assay ID: Hs00168719_m1). The assays were run on the QuantStudio 7 Flex Real Time PCR System according to the manufacturer's instructions (Life Technologies). Relative expression of TTR mRNA was calculated by normalizing to the endogenous controls (GAPDH and PPIB) individually, and then averaged.
The groups in FIG. 29 and Table 36 are identified by the gRNA ID used in each LNP preparation.
In a separate experiment, TTR mRNA knockdown was evaluated following treatment with LNPs comprising G000480, G000486, and G000502. The LNPs were formulated and PHH were cultured and treated with the LNPs, each as described in the experiment above in this Example with the exception that the cells were treated at a dose of 100 ng (with respect to the amount of mRNA cargo delivered).
as §1, with “(single treatment” for “(with biological triplicates”, “the High Capacity cDNA Reverse Transcription Kit” for “Maxima reverse transcriptase”, “according to the manufacturer's instructions.” for “and a poly-dT primer. The resulting cDNA was purified with Ampure XP Beads (Agencourt).”, “the” for “the purified”
The groups in FIG. 30 and Table 37 are identified by the gRNA ID used in each LNP preparation.

Row | Molecule | liver editing of the human TTR sequence (mean values) [1] | Avg % Knockdown (TTR mRNA) [2]
1 | G000494: TTR sgRNA modified sequence, Human, SEQ ID NO: 101; guide sequence of CR003360 (nucleic acid) guide: mG*mU*mG*rArGrUrCrUrGrGrArGrArGrCrUrGrCrArUrGrUrUrUrUrArGrAmGmCmUmAmGmAmAmAmUmAmGmCrArArGrUrUrArArArArUrArArGrGrCrUrArGrUrCrCrGrUrUrArUrCrAmAmCmUmUmGmAmAmAmAmAmGmUmGmGmCmAmCmCmGmAmGmUmCmGmGmUmGmCmU*mU*mU*mU | ~60% | 91.15%
2 | G000499: TTR sgRNA modified sequence, Human, SEQ ID NO: 106; guide sequence of CR005303 (nucleic acid) guide: mU*mG*mA*rArUrCrCrArArGrUrGrUrCrCrUrCrUrGrArGrUrUrUrUrArGrAmGmCmUmAmGmAmAmAmUmAmGmCrArArGrUrUrArArArArUrArArGrGrCrUrArGrUrCrCrGrUrUrArUrCrAmAmCmUmUmGmAmAmAmAmAmGmUmGmGmCmAmCmCmGmAmGmUmCmGmGmUmGmCmU*mU*mU*mU | ~60% | 91.38%
